Test results taken from patent publication WO2007054120A1 (dated 2007).

Assays:
[1] = target: T1, recombinant fibronectin domain ED-B (His)6 (human, UniProt P02751 1266-1356); assay: SPR (BIAcore), about 100 RU ED-B on chip, Fab in flow
T1 construct: domain: ED-B; Biotinylated ED-B was used only in pannings; also called rekombinantes ED-B; human ED-B

[2] = target: T1, recombinant fibronectin domain ED-B …; assay: SPR (BIAcore), ED-B on chip, Fab in flow
[3] = target: T1, recombinant fibronectin domain ED-B …; assay: SPR (BIAcore), ED-B on chip, Fab monomer in flow

Binder	Kd [1]	further results
MOR03243 (Fab, V domains shown) VH: QVQLQESGPGLVKPGETLSLTCTVSGGSISSYYWSWIRQAPGKGLEWIGEIHRGGYTQYNPSLKSRVTISVDTSKNQFSLKLSSVTAADTAVYYCARFFDVWGQGTLVTVSS VL: DIVLTQPPSVSGAPGQRVTISCSGSSSNIGSNTVRWYQQLPGTAPKLLIYSNNKRPSGVPDRFSGSKSGTSASLAITGLQSEDEADYYCQAWTRAHRYPVFGGGTKLTVLG	~0.7 nM	
MOR03245 (Fab, V domains shown) VH: QVQLQESGPGLVKPGETLSLTCTVSGGSISSYYWSWIRQAPGKGLEWIGVIHKWGFTNYNPSLKSRVTISVDTSKNQFSLKLSSVTAADTAVYYCARFFDVWGQGTLVTVSS VL: DIVLTQPPSVSGAPGQRVTISCSGSSSNIGSNTVRWYQQLPGTAPKLLIYSNNKRPSGVPDRFSGSKSGTSASLAITGLQSEDEADYYCWTGMSYHFVFGGGTKLTVLG	~0.7 nM	
MOR03246 (Fab, V domains shown) VH: QVQLVQSGAEVKKPGASVKVSCKASGYTFTGFYINWVRQAPGQGLEWMGWINPYSGNTRYAQKFQGRVTMTRDTSISTAYMELSSLRSEDTAVYYCARSPVYYKYDYWGQGTLVTVSS VL: DIVLTQPPSVSGAPGQRVTISCSGSSSNIGSNTVRWYQQLPGTAPKLLIYSNNKRPSGVPDRFSGSKSGTSASLAITGLQSEDEADYYCQSWDPRSFTVFGGGTKLTVL	0.6 nM	
MOR03255 (Fab, V domains shown) VH: QVQLVESGGGLVQPGGSLRLSCAASGFTFSSYGMHWVRQAPGKGLEWVSVISNRSSYIYYADSVKGRFTISRDNSKNTLYLQMNSLRAEDTAVYYCARNKVGFDVWGQGTLVTVSS VL: DIALTQPASVSGSPGQSITISCTGTSSDGGGYNTVSWYQQHPGKAPKLMIYYVHKRPSGVSNRFSGSKSGNTASLTISGLQAEDEADYYCQSWDLSVHQVVFGGGTKLTVLG	0.03 nM	
MOR03258 (Fab, V domains shown) VH: QVQLVESGGGLVQPGGSLRLSCAASGFTFSSYGMHWVRQAPGKGLEWVSVISNQSNYIYYADSVKGRFTISRDNSKNTLYLQMNSLRAEDTAVYYCARNKVGFDVWGQGTLVTVSS VL: DIALTQPASVSGSPGQSITISCTGTSSDGGGYNTVSWYQQHPGKAPKLMIYYVHKRPSGVSNRFSGSKSGNTASLTISGLQAEDEADYYCQSWDLLAPSVVFGGGTKLTVL	0.04 nM	
MOR03075 (Fab, V domains shown) VH: QVQLQESGPGLVKPGETLSLTCTVSGGSISSYYWSWIRQAPGKGLEWIGIGHWGSTQYNPSLKGRVTISVDTSKNQFSLKLSSVTAEDTAVYYCARFFDVWGQGTLVTVSS VL: DIVLTQPPSVSGAPGQRVTISCSGSSSNIGSNTVRWYQQLPGTAPKLLIYSNNKRPSGVPDRFSGSKSGTSASLAITGLQSEDEADYYCQSWDPRSFTVFGGGTKLTVLG		Kd [2]: 2.4 nM
MOR03062 (Fab, V domains shown) VH: QVQLVESGGGLVQPGGSLRLSCAASGFTFSSYGMHWVRQAPGKGLEWVSVISSSGSYIYYADSVKGRFTISRDNSKNTLYLQMNSLRAEDTAVYYCARNKVGFDVWGQGTLVTVSS VL: DIALTQPASVSGSPGQSITISCTGTSSDGGGYNTVSWYQQHPGKAPKLMIYYVHKRPSGVSNRFSGSKSGNTASLTISGLQAEDEADYYCQSWDLSVHQVVFGGGTKLTVLG		fold affinity enhancement against MOR02715 [2]: 15 fold; Kd [3]: 2.4 nM
